From patent US20090068174A1, “THERAPEUTIC ALKALINE PROTEASE COMPOSITIONS AND USE IN FACILITATING THE TRANSPORT OF AGENTS ACROSS THE GASTROINTESTINAL MUCOSAL LINING” (Kansas University Medical Center Research Institute, Inc., priority 2007, published 2009)

What was measured:
[1] = Protease stability and solubility in water; assay type: physicochemical
Description: For determining the stability of the alkaline protease in drinking water over 0-4 days, proteases can be dissolved in autoclaved tap water at a concentration of 1 mg/ml and stored at either 25° C. or 4° C. At regular intervals (every 3 hours at 0-18 hours, every 8 hours at 18-24 hours, and every 12 hours at 24-96 hours), aliquots can be ascetically removed and tested for their ability to cleave protamine sulfate using a modification of the ninhydrin assay of Rosen. Results are expressed as % residual activity measured immediately after preparation of the protease solutions.

TNF-α [2] = molecular target: T1, TNF-α (Mus musculus, UniProt P06804); assay: Pretreatment of mice with protease before TNF-α challenge, activated caspase-3 in intestine; assay type: in vivo
T1 sequence (P06804 80-235 limits assumed): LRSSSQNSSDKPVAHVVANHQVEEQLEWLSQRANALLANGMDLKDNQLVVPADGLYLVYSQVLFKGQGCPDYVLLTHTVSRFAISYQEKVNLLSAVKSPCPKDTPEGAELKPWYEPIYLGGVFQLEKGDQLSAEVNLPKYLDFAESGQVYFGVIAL
Description: In this figure, various amounts of deutrolysin and alkaline protease were administered to mice 15 min prior to challenge with TNF-α. Intestinal tissues were again recovered 1 h later and the expression of activated caspase-3 was measured. […] (B) The ability of AP to provide protection against the apoptotic effects of TNF-α in vivo was limited in its duration. Thus, pretreatment of the mice for up to 30 min prior to TNF-α challenge prevented caspase-3 activation, whereas delaying cytokine challenge beyond 30 min diminished the protective effect of the protease.
A modification of this experiment was then performed by injecting various amounts of the proteases for 15 min prior to challenge with TNF-α (FIG. 22). Intestinal tissues were again recovered 1 h later and the expression of activated caspase-3 was measured. […]
(§1) Mice were injected i.p. with 5 ng of recombinant mouse TNF-α or protease-treated TNF-α, and 2 cm segments of their duodenums were collected 1 h later. […] The sections were first treated with rabbit antibody to activated (cleaved) mouse caspase-3, and bound antibody was detected using a Histostain-SP kit. For each mouse, tissues were scored by enumerating the number of sections in which less than 10%, 10-50%, or >50% of the intestinal villi expressed activated caspase-3. At least 48 sections were analyzed in this fashion from each mouse.

mouse recombinant TNF-α = molecular target: T2, mouse recombinant TNF-α (Mus musculus, UniProt P06804); assay: Cleavage of mouse TNF-α (Western blotting); assay type: biochemical; conditions: 100 ng cytokine, 37° C. overnight, Western blot
T2 sequence (P06804 80-235 limits assumed): T1 sequence (P06804 80-235 limits assumed)
Description: Degradation of mouse recombinant TNF-α: (A) or IFN-γ (B) following treatment with: the protease powder prepared according to Example 1 (preparation), purified alkaline protease (AP); Pseudomonas elastase (E); and buffered-treated control (C). The cytokines (100 ng each) were incubated at 37° C. overnight with the indicated quantities (ng) of enzymes, and then analyzed by Western blotting for evidence of degradation. A scan of AP-treated mouse TNF-α (left-hand Western blot) showing the decreasing density of the top band as a function of alkaline protease concentration (C).
Because the anti-TNF-α used here was specific for an epitope located in the carboxyl terminus of the cytokine, the pattern of cleavage is most consistent with attack at the amino terminus of TNF-α (e.g., there is a loss of molecular mass without a loss of the epitope recognized by the antibody).

TNF-α [3] = molecular target: T1, TNF-α; assay: Protease-treated TNF-α injected i.p. into mice, activated caspase-3 in intestine; assay type: in vivo; conditions: TNF-α treated with protease for 2 h, intestine 1 h later
Description: TNF-α was first treated either with PBS, AP or D for 2 h, the reaction mixtures were inactivated by the addition of FBS, and the cytokine-protease mixtures were injected i.p. into mice. (A) One hour later the mice were euthanized, samples of their intestines were collected and fixed, and tissue sections were analyzed by immunohistology for the expression of activated caspase-3. These are the results are shown in which data are expressed in two forms: (B) the frequency distributions of sections expressing different levels of activated caspase-3; and (C) the percentages of tissue sections in which 10% or more of the villi stained for activated caspase-3.
A series of experiments was performed in which the activation of caspase-3 within the intestine was measured. […] One hour later the mice were euthanized, samples of their intestines were collected and fixed, and tissue sections were analyzed by immunohistology for the expression of activated caspase-3 (FIG. 21-22). […]
as §1, with “For each mouse, tissues were scored by enumerating the number of sections in which less than 10%, 10-50%, or >50% of the intestinal villi expressed activated caspase-3.” left out

B1: Alkaline Protease: Aspergillus oryzae alkaline protease (oryzin), SEQ ID NO: 2, purified from the protease powder of Example 1 (protein, listed as Aspergillus oryzae)
chain: MQSIKRTLLLLGAILPAVLGAPVQETRRAAEKLPGKYIVTFKPGIDEAKIQEHTTWATNIHQRSLERRGATGGDLPVGIERNYKINKFAAYAGSFDDATIEEIRKNEDVAYVEEDQIYYLDGLTTQKSAPWGLGSISHKGQQSTDYIYDTSAGEGTYAYVVDSGVNVDHEEFEGRASKAYNAAGGQHVDSIGHGTHVSGTIAGKTYGIAKKASILSVKVFQGESSSTSVILDGFNWAANDIVSKKRTSKAAINMSLGGGYSKAFNDAVENAFEQGVLSVVAAGNENSDAGQTSPASAPDAITVAAIQKSNNRASFSNFGKVVDVFAPGQDILSAWIGSSSATNTISGTSMATPHIVGLSLYLAALENLDGPAAVTKRIKELATKDWKDVKGSPNLLAYNGNA
Solubility in water [1]: soluble in water | Stability of catalytic activity on storage ([1]; 4° C. storage): stable with 4 °C storage for several weeks | Retention of activity in water ([1]; for 2 days): > 80% | Pretreatment interval prior to TNF-α challenge that prevented caspase-3 activation (TNF-α [2]): up to 30 min | Effect of protease pretreatment on action of TNF-α in vivo (activated caspase-3) (TNF-α [2]; protease 1-10 μg injected 15 min prior to TNF-α challenge, tissues 1 h later): blocked the action of TNF-α in vivo | Cleavage of mouse TNF-α (mouse recombinant TNF-α): evidenced the same substrate specificity | Ability of protease-treated TNF-α to activate caspase-3 in intestinal epithelial cells (TNF-α [3]): destroyed the ability of the cytokine to activate caspase-3
